{"source": "the supplement of paper PMC10065799", "about": "“High-throughput profiling of sequence recognition by tyrosine kinases and SH2 domains using bacterial peptide display” (eLife, 2023);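 also: 11-residue human phosphosite peptides and single-mutation variants displayed on the E. coli surface, counted by deep sequencing, each peptide's frequency after selection divided by its frequency in the unselected input library; frequency after pTyr selection over input frequency; kinase dosed for 20-30% of maximal phosphorylation in three min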", "data": [{"target": "MERTK (UniProt Q12866)", "sequence (Q12866 whole entry, looked up)": "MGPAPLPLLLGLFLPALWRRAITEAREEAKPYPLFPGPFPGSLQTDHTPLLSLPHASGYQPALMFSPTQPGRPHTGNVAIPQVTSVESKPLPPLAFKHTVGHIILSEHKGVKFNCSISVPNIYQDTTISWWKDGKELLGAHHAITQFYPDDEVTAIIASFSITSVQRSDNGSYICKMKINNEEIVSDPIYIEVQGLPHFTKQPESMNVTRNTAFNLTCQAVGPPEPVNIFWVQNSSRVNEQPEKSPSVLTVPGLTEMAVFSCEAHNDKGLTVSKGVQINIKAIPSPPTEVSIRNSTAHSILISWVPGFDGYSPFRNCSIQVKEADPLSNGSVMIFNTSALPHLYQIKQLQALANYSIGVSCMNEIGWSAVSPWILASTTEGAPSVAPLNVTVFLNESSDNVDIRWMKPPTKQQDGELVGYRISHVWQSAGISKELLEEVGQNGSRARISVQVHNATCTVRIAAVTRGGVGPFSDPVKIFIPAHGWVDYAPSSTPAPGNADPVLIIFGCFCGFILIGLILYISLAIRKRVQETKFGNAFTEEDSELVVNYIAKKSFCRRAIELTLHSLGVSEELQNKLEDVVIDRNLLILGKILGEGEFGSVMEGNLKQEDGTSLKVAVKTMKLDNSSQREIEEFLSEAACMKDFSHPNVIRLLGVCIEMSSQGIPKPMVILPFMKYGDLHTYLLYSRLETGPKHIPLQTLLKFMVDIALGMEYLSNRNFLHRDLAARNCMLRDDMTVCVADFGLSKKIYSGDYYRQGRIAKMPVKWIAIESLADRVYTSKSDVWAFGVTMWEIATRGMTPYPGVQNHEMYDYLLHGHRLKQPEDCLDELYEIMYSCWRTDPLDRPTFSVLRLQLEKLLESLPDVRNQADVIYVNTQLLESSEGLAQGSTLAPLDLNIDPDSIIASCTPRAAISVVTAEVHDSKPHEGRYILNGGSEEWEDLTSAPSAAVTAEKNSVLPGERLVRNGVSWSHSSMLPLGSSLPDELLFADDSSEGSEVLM", "assay": "phosphorylation enrichment, bacterial display (enrichment ratio); higher = better substrate or ligand; peptides without Tyr show the background", "values": [{"sequence": "SGSIHYSRVPR [GLB1_Y57]", "phosphorylation enrichment": 0.64}, {"sequence": "KDHLDYKYQPR [SOX9_Y172_P170L]", "phosphorylation enrichment": 0.418}, {"sequence": "VVLVSYVPFSQ [SH2B1_Y624_S627F]", "phosphorylation enrichment": 0.496}, {"sequence": "QYKDKYLAKHN [CASK_Y712]", "phosphorylation enrichment": 0.283}, {"sequence": "MAFDRYVAVCA [OR52J3_Y125]", "phosphorylation enrichment": 0.522}, {"sequence": "TEDELYQLSLQ [RASGRP2_Y378]", "phosphorylation enrichment": 0.542}, {"sequence": "EKQVAYCPSGR [ROS1_Y2323_K2328R]", "phosphorylation enrichment": 0.667}, {"sequence": "ASNNPYFRDQA [RPGRIP1_Y846]", "phosphorylation enrichment": 0.416}, {"sequence": "GVFSRHFTTFD [CLCA1_Y661_Y661H_YF]", "phosphorylation enrichment": 0.166}, {"sequence": "DLDFTYIYPNI [PTEN_Y27_L25F]", "phosphorylation enrichment": 1.22}, {"sequence": "GASRRYGSGVS [NEU1_Y242_W240R]", "phosphorylation enrichment": 0.509}, {"sequence": "RRVLVYRGRGA [QDPR_Y16_G17R]", "phosphorylation enrichment": 0.708}, {"sequence": "NTGNYYDLYGG [PTPN11_Y63_D61N]", "phosphorylation enrichment": 9.28}, {"sequence": "VNKIFYPDFIV [LIG3_Y768_YF]", "phosphorylation enrichment": 0.518}, {"sequence": "GKSFTYAAFHA [KCNT1_Y563]", "phosphorylation enrichment": 0.819}, {"sequence": "QTEAEYRFIFM [PTPN11_Y511_Q510E_YF]", "phosphorylation enrichment": 0.618}, {"sequence": "IGSHAYGDQYR [IDH1_Y135_R132S]", "phosphorylation enrichment": 0.406}, {"sequence": "GGYTCYSDGKK [PROS1_Y266_C267S]", "phosphorylation enrichment": 0.441}, {"sequence": "INQGPYENHSV [ATP6V1B1_Y462_R465H]", "phosphorylation enrichment": 0.55}, {"sequence": "KEKLCYVALDF [ACTA1_Y220]", "phosphorylation enrichment": 4.72}, {"sequence": "KDQPDYKYQPR [SOX9_Y172_H169Q]", "phosphorylation enrichment": 0.415}, {"sequence": "FLENFYDLKKD [MMP3_Y42_YF]", "phosphorylation enrichment": 0.549}, {"sequence": "SSPQPYLVPFL [TAF4_Y652]", "phosphorylation enrichment": 0.514}, {"sequence": "AVIADYMFWLG [SPATA16_Y290_M286V]", "phosphorylation enrichment": 2.51}, {"sequence": "SISLRYEGRVF [ABL1_Y167_YF]", "phosphorylation enrichment": 0.384}, {"sequence": "ENRKYYKDLKE [PURA_Y156_M157K]", "phosphorylation enrichment": 0.34}, {"sequence": "DPFHVYIKNHV [KCNE3_Y95_R99H_YF]", "phosphorylation enrichment": 0.354}, {"sequence": "SVKVFYKKCWS [EPHA7_Y202_YF]", "phosphorylation enrichment": 0.409}, {"sequence": "MSRDIYSTDFF [NTRK1_Y676_YF]", "phosphorylation enrichment": 10.4}]}, {"system": "c-Abl (mouse)", "assay": "phosphorylation enrichment, bacterial display (enrichment ratio); higher = better substrate or ligand; peptides without Tyr show the background", "values": [{"sequence": "SGSIHYSRVPR [GLB1_Y57]", "phosphorylation enrichment": 0.716}, {"sequence": "KDHLDYKYQPR [SOX9_Y172_P170L]", "phosphorylation enrichment": 0.451}, {"sequence": "VVLVSYVPFSQ [SH2B1_Y624_S627F]", "phosphorylation enrichment": 0.938}, {"sequence": "QYKDKYLAKHN [CASK_Y712]", "phosphorylation enrichment": 0.458}, {"sequence": "MAFDRYVAVCA [OR52J3_Y125]", "phosphorylation enrichment": 0.779}, {"sequence": "TEDELYQLSLQ [RASGRP2_Y378]", "phosphorylation enrichment": 0.928}, {"sequence": "EKQVAYCPSGR [ROS1_Y2323_K2328R]", "phosphorylation enrichment": 1.06}, {"sequence": "ASNNPYFRDQA [RPGRIP1_Y846]", "phosphorylation enrichment": 0.537}, {"sequence": "GVFSRHFTTFD [CLCA1_Y661_Y661H_YF]", "phosphorylation enrichment": 0.346}, {"sequence": "DLDFTYIYPNI [PTEN_Y27_L25F]", "phosphorylation enrichment": 0.953}, {"sequence": "GASRRYGSGVS [NEU1_Y242_W240R]", "phosphorylation enrichment": 0.437}, {"sequence": "RRVLVYRGRGA [QDPR_Y16_G17R]", "phosphorylation enrichment": 0.829}, {"sequence": "NTGNYYDLYGG [PTPN11_Y63_D61N]", "phosphorylation enrichment": 1.01}, {"sequence": "VNKIFYPDFIV [LIG3_Y768_YF]", "phosphorylation enrichment": 0.612}, {"sequence": "GKSFTYAAFHA [KCNT1_Y563]", "phosphorylation enrichment": 0.654}, {"sequence": "QTEAEYRFIFM [PTPN11_Y511_Q510E_YF]", "phosphorylation enrichment": 0.912}, {"sequence": "IGSHAYGDQYR [IDH1_Y135_R132S]", "phosphorylation enrichment": 0.576}, {"sequence": "GGYTCYSDGKK [PROS1_Y266_C267S]", "phosphorylation enrichment": 0.908}, {"sequence": "INQGPYENHSV [ATP6V1B1_Y462_R465H]", "phosphorylation enrichment": 0.54}, {"sequence": "KEKLCYVALDF [ACTA1_Y220]", "phosphorylation enrichment": 0.877}, {"sequence": "KDQPDYKYQPR [SOX9_Y172_H169Q]", "phosphorylation enrichment": 0.519}, {"sequence": "FLENFYDLKKD [MMP3_Y42_YF]", "phosphorylation enrichment": 0.663}, {"sequence": "SSPQPYLVPFL [TAF4_Y652]", "phosphorylation enrichment": 1.09}, {"sequence": "AVIADYMFWLG [SPATA16_Y290_M286V]", "phosphorylation enrichment": 1.17}, {"sequence": "SISLRYEGRVF [ABL1_Y167_YF]", "phosphorylation enrichment": 0.696}, {"sequence": "ENRKYYKDLKE [PURA_Y156_M157K]", "phosphorylation enrichment": 0.549}, {"sequence": "DPFHVYIKNHV [KCNE3_Y95_R99H_YF]", "phosphorylation enrichment": 0.915}, {"sequence": "SVKVFYKKCWS [EPHA7_Y202_YF]", "phosphorylation enrichment": 0.965}, {"sequence": "MSRDIYSTDFF [NTRK1_Y676_YF]", "phosphorylation enrichment": 0.631}]}]}
